This assay concerns the target T1, human FGFR4-Fc (R&D Systems) (human, UniProt P22455 22-369).
T1 construct: Bought; also called FGFR4 (R&D systems); R&D FGFR4; not shown: Fc of the commercial fusion; not described
In words: ELISA: FGF-8b coated at 100 nM, FGFR-Fc 100 to 0.10 nM in 1:2 steps with 10 ug/ml heparin, anti-human Fc-HRP, OD 490 nm. How it is done:
To determine the binding capability of FGFR-Fc to their respective ligands, an ELISA was run. Recombinant human FGF-8b or FGF-17 (R&D Systems) was plated at 100 nM on a Nunc Maxisorp 96-well plate for 1 h at room temperature with shaking. The plates were blocked with BLOTTO (Thermo Fisher Scientific, Rockford, Ill.) for 1 h at room temperature, then washed 5 times with ELISA C buffer (137 mM NaCl, 2.7 mM KCl, 7.2 mM Na₂HPO₄, 1.5 mM KH₂PO₄, 0.05% (v/w) polysorbate 20, pH 7.2). FGFR-Fcs were diluted to 100 nM with PBS/0.1×BLOTTO/10 ug/ml porcine heparin (Sigma, St. Louis, Mo.) and then 1:2 serial dilutions were made, ending at 0.10 nM. 100 μL of FGFR-Fcs were plated and incubated at 4° C. overnight. The following day, the plates were washed 5 times with ELISA C and then incubated with 2.5 μg/mL horseradish peroxidase-conjugated anti-human Fc antibody (Jackson ImmunoResearch Laboratories, West Grove, Pa.) for 1 h at room temperature with shaking. After 5 washes with ELISA C, 100 μL of OPD in citrate buffer (5 mg of o-phenylenediamine in 63 mM sodium citrate, 37 mM citric acid, pH 5.0, 0.03% H₂O₂) was added for detection. After 2-5 minutes, the reaction was stopped with 1 N H₂SO₄. The plates were read at 490 nm using SoftMaxPro software.

B1: recombinant human FGF-8b (ligand, UniProt P55075-3 23-215, looked up)
chain: QVTVQSSPNFTQHVREQSLVTDQLSRRLIRTYQLYSRTSGKHVQVLANKRINAMAEDGDPFAKLIVETDTFGSRVRVRGAETGLYICMNKKGKLIAKSNGKGKDCVFTEIVLENNYTALQNAKYEGWYMAFTRKGRPRKGSKTRQHQREVHFMKRLPRGHHTTEQSLRFEFLNYPPFTRSLRGSQRTWAPEPR
B1: the binding result is “binds”.

The values above are taken from patent publication US20120134993A1 (ZymoGenetics, published 2012).
